According to the supplement of paper PMC12042874:
± gives the uncertainty stated by the source.

Test: amyloid nucleation score (Sup35N fusion, yeast selection) (log enrichment); library NNK3; higher = more nucleation; inactive = no reads after selection
Procedure, shortened: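 On medium lacking adenine and uracil, psi-negative yeast expressing peptides of 20 random codons fused to Sup35N were grown 7 days at 30°C after a 24-hour induction with 100 μM copper sulfate. Illumina sequencing of input and output plasmid inserts gave the reads, and sequences under 100 input reads were excluded. The nucleation score is the DiMSum log enrichment of output over input reads, centred on the mode score of non-aggregating sequences.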

Row | Substance | amyloid nucleation score
1 | VFTWILSDSHTSMWFRCQGG | inactive
2 | VGGQISRDNGCLSILMSFDN | inactive
3 | VGKFRLMIHVTSHYGFCDLF | inactive
4 | VGLALRLCLAVLSDRKWILS | inactive
5 | VGLFRESPWEV | inactive
6 | VGLRNLGFVMFSRWLTPLLI | inactive
7 | VGLSYVMINLGLPYLGRSAT | 1.83 ± 0.082
8 | VGMRNTSLRCLVLIG | inactive
9 | VGRAD | inactive
10 | VGRPTASGLRNCMWSLSWCV | inactive
11 | VGWIHYCQGTYKRMFGITGR | inactive
12 | VGYAGVIIEKKYHCPKKSAF | inactive
13 | VGYTNLVFGDLLLFCMFNWD | 0.109 ± 0.45
14 | VHFLILETFKQNMWGYDLTL | inactive
15 | VHGIRSELDRYLMNTNSTEL | inactive
16 | VHLNPEN | inactive
17 | VHVSVCRSKGWHDLWRIKCV | inactive
18 | VHYSWSTFFD | 0.593 ± 0.27
19 | VICGGNRLRSIQWTFWLWDN | inactive
20 | VIFFSRSAYYKVISGRVI | inactive
21 | VIHEDMVLTGF | inactive
22 | VIHSLLALTDLMSKSYLTIY | inactive
23 | VIMRMFSFARLFVGSYPFRV | inactive

Row | Substance | amyloid nucleation score
24 | VIRIGDPILTV | inactive
25 | VIRPFVYGDNLVSSTTAMIF | inactive
26 | VIVELVCLVMFNVWVGKGLW | -0.054 ± 0.31
27 | VIYISCFTVLLVFLVNTPLR | 1.2 ± 0.11
28 | VKEPMVPITLLSSTSSLDGM | inactive
29 | VKFIYRLEQNEDSAQNSRMG | inactive
30 | VKGQCHYYLLSQLSGSSPVI | inactive
31 | VKISYDKSRHVCLCGFSSM | 2.37 ± 0.077
32 | VKIYLSPTWEHIDRVYNCAL | 1.59 ± 0.059
33 | VKLKNLSCKRLLRRHSACHR | inactive
34 | VKLSSFCRSNNCWYMRHAFL | inactive
35 | VKRGCCLVICWARFNVSEAH | inactive
36 | VKRVKMLAYPRHFLLMMSGK | inactive
37 | VKVEPVRLLWTHVWKS | inactive
38 | VKWTQE | inactive
39 | VLCAYK | inactive
40 | VLCGLARVKEVIASRRWECG | inactive
41 | VLCHQCWCRKIWPMN | inactive
42 | VLCPFRLFMSNTYLTFAMSC | inactive
43 | VLCVETTCPVGDIMECCLLP | inactive
44 | VLEMMWVD | 0.144 ± 0.64
45 | VLGVEECGYWLD | inactive
46 | VLGYILMRLRLYKIQVDISG | inactive

Row | Substance | amyloid nucleation score
47 | VLMGRCLPRWLLYEELLVYV | inactive
48 | VLMQSS | -0.36 ± 1.2
49 | VLPCVMYNIHPQITCRR | inactive
50 | VLRCTSPIES | inactive
51 | VLRTTECVQG | inactive
52 | VLRVLLGFDKFTATISTPDG | 0.323 ± 0.28
53 | VLRVMCRCDCNTGFAKRESV | inactive
54 | VLSFRSRTSKNKFRGAQGVT | inactive
55 | VLTLIFFYFRISCICPFLL | inactive
56 | VLYGTSASWSEFEFDHVIHV | inactive
57 | VMAHFWRGKLLRSYVDRWRG | inactive
58 | VMDGFHKHIFFVVCTSRHNF | 0.271 ± 0.77
59 | VMKHHALGLEEWPQYTSYAW | inactive
60 | VMMFSELGCCVLCGPLKDNM | 1.62 ± 0.06
61 | VMTAVRAD | inactive
62 | VMYNYARFRWFLCTDQ | 1 ± 0.2
63 | VMYWLYRINDSSQSFFSYFS | inactive
64 | VNDWWVSGW | inactive
65 | VNELSFSTSF | inactive
66 | VNFVSFRP | inactive
67 | VNFWMMRHAGCCKVHNKLSV | inactive
68 | VNLNKGLRWNYFGDDMKPHR | 1.19 ± 0.073
69 | VNLSFNCWFDVVCVSSRF | 1.9 ± 0.07

Row | Substance | amyloid nucleation score
70 | VNLYGSRL | inactive
71 | VNNPVLFFQ | inactive
72 | VNRNFILSSLVH | inactive
73 | VNTATCYQ | inactive
74 | VNTEG | inactive
75 | VNVDLPLARNHWYPSPIYMV | -0.654 ± 0.84
76 | VPGELGALGQACLKEDFSKG | inactive
77 | VPGFLGLTLHLLRREHQQNH | inactive
78 | VPNDKVGKLRIMGREWVRSH | inactive
79 | VPNLEVSLKAFSSIVSFVRG | inactive
80 | VQHFRHQSASELV | inactive
81 | VQIRAANLTYNRQCQSHLFS | inactive
82 | VQISIDKAWMRTSTCSIGSK | inactive
83 | VQSSIESLPDPIFRYLQSIS | inactive
84 | VRALNTAAWLSNTRCLGMDA | inactive
85 | VRARFHDGQF | -1.05 ± 2.4
86 | VRCVGGHSHDHWETVWGVFG | inactive
87 | VRDVDKMC | inactive
88 | VREMGLTHFTASLYRGEMPG | inactive
89 | VRFCSEMVCLDYFSNIMHLG | inactive
90 | VRFKRVYCSG | inactive
91 | VRFVSYRLVGSV | inactive
92 | VRGTGVVDRLGLGRWDRPEG | inactive

Row | Substance | amyloid nucleation score
93 | VRHNLLGCLLGSFLGASSNR | -0.306 ± 0.37
94 | VRHVITSSG | inactive
95 | VRIFYMV | inactive
96 | VRISMRDMVWSRFWLPVVLK | inactive
97 | VRLCRGS | inactive
98 | VRNILRLNRFCWCKTLQKIA | inactive
99 | VRNWTDD | inactive
100 | VRPFPFTWSSSNKEV | inactive
101 | VRRHAF | inactive
102 | VRTLPDLLPINRKQMVKERM | inactive
103 | VRVDDKSNCVTRRFKP | inactive
104 | VRVTLWYQTNMGIFEGHSRN | inactive
105 | VSGFERVHGKGSN | inactive
106 | VSGSEFLDFKQLVYTLDAAC | 0.481 ± 0.35
107 | VSHFSSRHKRTEVRSGSPQT | inactive
108 | VSHNSCGQTAESLNNFKTWS | inactive
109 | VSHTSNTTYRWRMFIYWSAF | 0.104 ± 0.26
110 | VSKESILGGRCVM | inactive
111 | VSLFRSLGNLSFSSIWLPSP | inactive
112 | VSLLMRASGSCLNMQVYSGF | 1.57 ± 0.11
113 | VSLPSVIKYNDS | inactive
114 | VSLTGWSR | inactive
115 | VSLYCVIWIR | 1.22 ± 0.094

Row | Substance | amyloid nucleation score
116 | VSMVPRNIWCEMFCQTHADI | 1.26 ± 0.1
117 | VSPMVALCCFCLKEMNFGVH | 2.92 ± 0.069
118 | VSRSRER | inactive
119 | VSSFWFCLS | inactive
120 | VSSTVGMV | 0.175 ± 0.29
121 | VSVLYYLKY | 0.132 ± 0.28
122 | VSYEWPSQMFRPRVPLALAT | inactive
123 | VSYGPA | inactive
124 | VSYKKDCMQTSLRLVITF | inactive
125 | VTFKDMDTHGWVHLSIHVAE | inactive
126 | VTGEYLRMAISGCRG | inactive
127 | VTGMFDSSLRRKMKVPVWAI | inactive
128 | VTKGWQGLGGLMGGEVCPWV | inactive
129 | VTLADEDGYKFLTLVKVLTY | inactive
130 | VTLMLSITSP | inactive
131 | VTLSGCIDLVWVCGVT | 2.01 ± 0.099
132 | VTMFFLFHMQLYFSSKILGF | inactive
133 | VTQSQRKASFMVCSYSTITR | inactive
134 | VTSYYSHISYVTL | inactive
135 | VTVSAQPAIK | inactive
136 | VVCELCGSYYYIHCWDCNAS | 2.75 ± 0.069
137 | VVCGANHLRIFFVNRVMWD | inactive
138 | VVDCLFLSEPCYVGFRWVIE | inactive

Row | Substance | amyloid nucleation score
139 | VVDIKNLYTCLTFCHKYGLN | 0.988 ± 0.12
140 | VVDNRNLSTCFYFRCVDWCQ | inactive
141 | VVEIMDLS | inactive
142 | VVFENLDRAFVYRRLDPIRC | inactive
143 | VVFGHAFYVTSHKTVLCSFG | inactive
144 | VVIHRSSSISGT | inactive
145 | VVILHCKTYAMASRWYGYRG | -0.003 ± 0.81
146 | VVKAFYRARELGFRAGLRTD | inactive
147 | VVLCLFFLLDIFSTGKVYIK | inactive
148 | VVLDSVVWGFDELSRLMSGA | inactive
149 | VVMKGTRMVKVKERGSGKDY | inactive
150 | VVNILW | 1.82 ± 0.1
151 | VVRFFLRTRTEGGYTWVLK | inactive
152 | VVRYDEGVVLNSRFLLSPGW | inactive
153 | VVSVLLDTI | inactive
154 | VVTVARERYIVF | inactive
155 | VVTVGVMT | inactive
156 | VVWLSNSEWLRYLKDG | inactive
157 | VWFLLPRGLRCV | inactive
158 | VWGMMFNMCYRELCLAMTLF | inactive
159 | VWILCNRPKRRMIYLTQCRM | inactive
160 | VWKMRDTKHMGLLWLLWFIE | inactive
